From patent publication US20240011005A1 (HUIDAGENE THERAPEUTICS, published 2024)
Positions count from the first letter of the chain named.

How the values were obtained:
Test in all cases: cell_activity
[1] = target: T1, Un1Cas12f1_ge4.1 (Uncultured bacterium) (UniProt A0A482D308); conditions: PAM TTTG per Table 1; 36.1 in Rh screen
T1 sequence: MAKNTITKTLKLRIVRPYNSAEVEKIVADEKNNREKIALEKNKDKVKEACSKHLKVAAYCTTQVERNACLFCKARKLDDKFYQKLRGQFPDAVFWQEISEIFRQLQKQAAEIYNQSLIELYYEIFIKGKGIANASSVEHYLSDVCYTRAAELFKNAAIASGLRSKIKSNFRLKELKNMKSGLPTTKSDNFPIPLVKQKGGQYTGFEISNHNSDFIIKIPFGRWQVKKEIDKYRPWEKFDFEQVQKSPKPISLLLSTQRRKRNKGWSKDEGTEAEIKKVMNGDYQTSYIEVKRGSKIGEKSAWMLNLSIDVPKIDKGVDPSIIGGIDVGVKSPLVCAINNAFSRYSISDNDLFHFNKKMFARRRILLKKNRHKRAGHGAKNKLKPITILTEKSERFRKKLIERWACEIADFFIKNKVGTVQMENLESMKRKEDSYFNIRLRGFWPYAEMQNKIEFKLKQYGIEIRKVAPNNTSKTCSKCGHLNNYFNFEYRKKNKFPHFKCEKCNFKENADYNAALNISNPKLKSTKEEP

[2] = tested on: T2, RhCas12f1-A273R A273R (Ruminiclostridium herbifermentans); conditions: PAM CCCA
T2 sequence: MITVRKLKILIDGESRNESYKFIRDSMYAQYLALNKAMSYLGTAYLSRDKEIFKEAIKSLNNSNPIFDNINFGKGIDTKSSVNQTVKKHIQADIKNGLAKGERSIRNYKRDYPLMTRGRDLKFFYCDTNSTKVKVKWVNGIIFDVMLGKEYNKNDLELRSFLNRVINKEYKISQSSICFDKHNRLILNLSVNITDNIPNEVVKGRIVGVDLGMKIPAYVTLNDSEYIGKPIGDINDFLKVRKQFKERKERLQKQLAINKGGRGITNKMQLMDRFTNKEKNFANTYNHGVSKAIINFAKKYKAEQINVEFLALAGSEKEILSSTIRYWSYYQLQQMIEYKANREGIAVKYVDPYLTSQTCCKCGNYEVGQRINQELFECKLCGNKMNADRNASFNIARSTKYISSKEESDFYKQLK

[3] = tested on: T3, RhCas12f1-Y125R Y125R (Ruminiclostridium herbifermentans); conditions: PAM CCCA
T3 sequence: T2 sequence with Y125R, R273A

[4] = tested on: T4, RhCas12f1-L270R (enRhCas12f1) (Ruminiclostridium herbifermentans); conditions: PAM CCCA
T4 sequence: T2 sequence with L270R, R273A

[5] = tested on: T5, RhCas12f1 (ME-A.1) (Ruminiclostridium herbifermentans); conditions: PAM CCCA, HEK293T
T5 sequence: T2 sequence with R273A

[6] = tested on: T6, RhCas12f1-T131R T131R (Ruminiclostridium herbifermentans); conditions: PAM CCCA
T6 sequence: T2 sequence with T131R, R273A

[7] = tested on: T7, RhCas12f1-A56R A56R (Ruminiclostridium herbifermentans); conditions: PAM CCCA
T7 sequence: T2 sequence with A56R, R273A

[8] = tested on: T8, RhCas12f1-I264R I264R (Ruminiclostridium herbifermentans); conditions: PAM CCCA
T8 sequence: T2 sequence with I264R, R273A

[9] = tested on: T9, RhCas12f1-S130R S130R (Ruminiclostridium herbifermentans); conditions: PAM CCCA
T9 sequence: T2 sequence with S130R, R273A

Row | Sequence | activity [1] | activity [2] | activity [3] | activity [4] | activity [5] | activity [6] | activity [7] | activity [8] | activity [9]
1 | ACCGCUUCACUUAGAGUGAAGGUGGGCUGCUUGCAUCAGCCUAAUGUCGAGAAGUGCUUUCUUCGGAAAGUAACCCUCGAAACAAAGAAAGGAAUGCAACCCAUUACAGUAGGAGCAUACUUUUAUUUUUUU / TTTGCCATTACAGTAGGAGCATAC / GTATGCTCCTACTGTAATGGCAAA [Un1Cas12f1_ge4.1 sgRNA ; reporter insertion, TTTG PAM] | 36.5 % GFP+ |  |  |  |  |  |  |  | 
2 | ACGGUUGAUUUAGCAACCGAAGUCUGAGGGCAUGUAGAAAAAAGUAUAGGUAUAUACCAACAUACUUGCAUUGCCACUCGGAAAGGGUUAACCUUGGUCAUUGUGUUACCGACCAAGCAUUCCAGAAAUGGAAUGUAAAUCCAUUACAGUAGGAGCAUACUUUUAUUUUUUU / CCCACCATTACAGTAGGAGCATAC / GTATGCTCCTACTGTAATGGTGGG |  | 75.3 % GFP+ | 73.3 % GFP+ | 73.8 % GFP+ | 61.5 % GFP+ | 77.2 % GFP+ | 73 % GFP+ | 75 % GFP+ | 76.1 % GFP+
